Values belong to the binder of their own block, whether it stands above or below them. No end group written: not given here. *: point of attachment. aminohexane = linker joining biotin to the N-terminal residue; Biotin = O=C1N[C@H]2[C@H](CS[C@H]2CCCCC(=O)*)N1
Target: CDK4/6
Assay: cell-based or functional assay
Settings: scale: relative value

CDK4/6 Reactivity: 15
B1: Polypeptide 10 (peptide)
peptide: {Biotin-aminohexane}-GMPWSPNPWARGGGG

CDK4/6 Reactivity: 7
B2: Polypeptide A (peptide)
peptide: {Biotin-aminohexane}-GMPWSPNPWWHGGGG

CDK4/6 Reactivity: 15
B3: Polypeptide 2 (peptide)
peptide: {Biotin-aminohexane}-AMPWSPNPWWRGGGG

CDK4/6 Reactivity: 5
B4: Polypeptide D (peptide)
peptide: {Biotin-aminohexane}-GMFWSPNPWWRGGGG

CDK4/6 Reactivity: 1
B5: Polypeptide 5 (peptide)
peptide: {Biotin-aminohexane}-GMPASPNPWWRGGGG

CDK4/6 Reactivity: 5
B6: Polypeptide 4 (peptide)
peptide: {Biotin-aminohexane}-GMAWSPNPWWRGGGG

CDK4/6 Reactivity: 5
B7: Polypeptide 14 (peptide)
peptide: {Biotin-aminohexane}-GMPYSPNPWWRGGGG

CDK4/6 Reactivity: 6
B8: Polypeptide 12 (peptide)
peptide: {Biotin-aminohexane}-GMPWSPNPWWRAGGG

CDK4/6 Reactivity: 33
B9: Polypeptide 3 (peptide)
peptide: {Biotin-aminohexane}-GAPWSPNPWWRGGGG

CDK4/6 Reactivity: 2
B10: Polypeptide 15 (peptide)
peptide: {Biotin-aminohexane}-GMPWSWNPWWRGGGG

CDK4/6 Reactivity: 1
B11: Polypeptide 6 (peptide)
peptide: {Biotin-aminohexane}-GMPWSANPWWRGGGG

CDK4/6 Reactivity: 2
B12: Polypeptide 16 (peptide)
peptide: {Biotin-aminohexane}-GMPWSFNPWWRGGGG

CDK4/6 Reactivity: 7
B13: Polypeptide F (peptide)
peptide: {Biotin-aminohexane}-AMPWSPAPAARAGGG

CDK4/6 Reactivity: 2
B14: Polypeptide 17 (peptide)
peptide: {Biotin-aminohexane}-GMPWSYNPWWRGGGG

CDK4/6 Reactivity: 7
B15: Polypeptide 8 (peptide)
peptide: {Biotin-aminohexane}-GMPWSPNAWWRGGGG

CDK4/6 Reactivity: 5
B16: Polypeptide 13 (peptide)
peptide: {Biotin-aminohexane}-GMPFSPNPWWRGGGG

CDK4/6 Reactivity: 5
B17: Polypeptide C (peptide)
peptide: {Biotin-aminohexane}-GMWWSPNPWWRGGGG

CDK4/6 Reactivity: 13
B18: Polypeptide 1 (peptide)
peptide: {Biotin-aminohexane}-GMPWSPNPWWRGGGG

CDK4/6 Reactivity: 6
B19: Polypeptide E (peptide)
peptide: {Biotin-aminohexane}-GMYWSPNPWWRGGGG

CDK4/6 Reactivity: 8
B20: Polypeptide 7 (peptide)
peptide: {Biotin-aminohexane}-GMPWSPAPWWRGGGG

CDK4/6 Reactivity: 5
B21: Polypeptide B (peptide)
peptide: {Biotin-aminohexane}-GMPWSPNPWWKGGGG

CDK4/6 Reactivity: 7
B22: Polypeptide 9 (peptide)
peptide: {Biotin-aminohexane}-GMPWSPNPAWRGGGG

CDK4/6 Reactivity: 3
B23: Polypeptide 11 (peptide)
peptide: {Biotin-aminohexane}-GMPWSPNPWWAGGGG

Reference: patent US20180334702A1
